# Test results published in paper PMC12630831 (Nature Communications, 2025).
# Residue numbers refer to the chain shown, from its start. Names may count otherwise.
# B1: FLAG-tagged PRDX1 C83A expressed in HEK293 cells (natural protein, UniProt Q06830 1-199, looked up)
# chain: MSSGNAKIGHPAPNFKATAVMPDGQFKDISLSDYKGKYVVFFFYPLDFTFVCPTEIIAFSDRAEEFKKLNCQVIGASVDSHFAHLAWVNTPKKQGGLGPMNIPLVSDPKRTIAQDYGVLKADEGISFRGLFIIDDKGILRQITVNDLPVGRSVDETLRLVQAFQFTDKHGEVCPAGWKPGSDTIKPDVQKSKEYFSKQK
# B2: FLAG-tagged WT PRDX1 expressed in HEK293 cells (natural protein, UniProt Q06830 1-199, looked up)
# chain: B1 chain with A83C
# Target: the molecule itself
# Assay: SDS-PAGE under DTT-free conditions with western blot
row,Protein,stoichiometry N
1,B1,2
2,B2,2
